Among the data in paper PMC3294249 are β-galactosidase activity (Miller units) values, retold here.

The target in assay [1] is Francisella α2NTD (residues 1-242), bacterial two-hybrid fusion (Francisella tularensis subsp. novicida strain U112). Nature of the assay: two-hybrid.
Assay [2] has as its target Francisella α1NTD (residues 1-244), bacterial two-hybrid fusion (Francisella tularensis subsp. novicida strain U112) (UniProt A0Q4K8). Nature of the assay: two-hybrid.

Consider “Francisella α1NTD (residues 1-244), bacterial two-hybrid fusion (from UniProt A0Q4K8 1-244) (domain or fragment)”, for which the β-galactosidase activity (Miller units) in assay [1] is 662 Miller units.
“Francisella α2NTD (residues 1-242), bacterial two-hybrid fusion (domain or fragment)” came in with a β-galactosidase activity (Miller units) in assay [2] of 1410 Miller units.
